One experiment concerns codeine. Kind of experiment: Whole cell biotransformation of codeine to morphine by E. coli cells expressing CODM variants. To be noted: for average codeine to morphine yield: FIG. 5, morphine assayed after 30 minutes per legend; for morphine yield improved relative to WT CODM: morphine yield assayed after 30 minutes; for speed of biotransformation with codeine as substrate (in words): time course over two hours. It counts as cell-based.

A further experiment has as its system thebaine. The experiment can be described thus: Whole cell biotransformation of thebaine to oripavine by E. coli cells expressing CODM variants. It counts as cell-based. As to conditions: for average thebaine to oripavine yield: FIG. 5; for oripavine yield improved relative to WT CODM: oripavine yield assayed after 4 hours.
Setting [1] is: morphine after 30 minutes, oripavine after 4 hours.

Read-outs that look alike come from different tables or passages of the source.

The record followed here is patent US20250283129A1, “PROCESS” (Sun Pharmaceutical Industries Australia Pty Limited, priority 2021, published 2025).

B1: 17M: codeine 3-O-demethylase with amino acid substitution I7M (protein, listed as Papaver somniferum)
chain: METPILMKLGNGLSIPSVQELAKLTLAEIPSRYTCTGESPLNNIGASVTDDETVPVIDLQNLLSPEPVVGKLELDKLHSACKEWGFFQLVNHGVDALLMDNIKSEIKGFFNLPMNEKTKYGQQDGDFEGFGQPYIESEDQRLDWTEVFSMLSLPLHLRKPHLFPELPLPFRETLESYLSKMKKLSTVVFEMLEKSLQLVEIKGMTDLFEDGLQTMRMNYYPPCPRPELVLGLTSHSDFSGLTILLQLNEVEGLQIRKEERWISIKPLPDAFIVNVGDILEIMTNGIYRSVEHRAVVNSTKERLSIATFHDSKLESEIGPISSLVTPETPALFKRGRYEDILKENLSRKLDGKSFLDYMRM
Regarding B1, in the experiment with codeine, the “average codeine to morphine yield” value was found to be 32%. Also, the “average thebaine to oripavine yield” value in the experiment with thebaine (after 4 hours) is listed as 6%.

B2: E259D+R260K: codeine 3-O-demethylase with amino acid substitutions E259D and R260K (protein, listed as Papaver somniferum)
chain: METPILIKLGNGLSIPSVQELAKLTLAEIPSRYTCTGESPLNNIGASVTDDETVPVIDLQNLLSPEPVVGKLELDKLHSACKEWGFFQLVNHGVDALLMDNIKSEIKGFFNLPMNEKTKYGQQDGDFEGFGQPYIESEDQRLDWTEVFSMLSLPLHLRKPHLFPELPLPFRETLESYLSKMKKLSTVVFEMLEKSLQLVEIKGMTDLFEDGLQTMRMNYYPPCPRPELVLGLTSHSDFSGLTILLQLNEVEGLQIRKEDKWISIKPLPDAFIVNVGDILEIMTNGIYRSVEHRAVVNSTKERLSIATFHDSKLESEIGPISSLVTPETPALFKRGRYEDILKENLSRKLDGKSFLDYMRM
As to B2, the “product yield / performance compared to WT CODM strain (in words)” value in the experiment with thebaine (setting [1]) is “improved compared to the WT CODM stain”.

B3: P4A: codeine 3-O-demethylase with amino acid substitution P4A (protein, listed as Papaver somniferum)
chain: METAILIKLGNGLSIPSVQELAKLTLAEIPSRYTCTGESPLNNIGASVTDDETVPVIDLQNLLSPEPVVGKLELDKLHSACKEWGFFQLVNHGVDALLMDNIKSEIKGFFNLPMNEKTKYGQQDGDFEGFGQPYIESEDQRLDWTEVFSMLSLPLHLRKPHLFPELPLPFRETLESYLSKMKKLSTVVFEMLEKSLQLVEIKGMTDLFEDGLQTMRMNYYPPCPRPELVLGLTSHSDFSGLTILLQLNEVEGLQIRKEERWISIKPLPDAFIVNVGDILEIMTNGIYRSVEHRAVVNSTKERLSIATFHDSKLESEIGPISSLVTPETPALFKRGRYEDILKENLSRKLDGKSFLDYMRM
In the case of B3, in the experiment with thebaine (setting [1]), the “product yield / performance compared to WT CODM strain (in words)” value is listed as “minor improvement in product yield”.

B4: E259G: codeine 3-O-demethylase with amino acid substitution E259G (protein, listed as Papaver somniferum)
chain: METPILIKLGNGLSIPSVQELAKLTLAEIPSRYTCTGESPLNNIGASVTDDETVPVIDLQNLLSPEPVVGKLELDKLHSACKEWGFFQLVNHGVDALLMDNIKSEIKGFFNLPMNEKTKYGQQDGDFEGFGQPYIESEDQRLDWTEVFSMLSLPLHLRKPHLFPELPLPFRETLESYLSKMKKLSTVVFEMLEKSLQLVEIKGMTDLFEDGLQTMRMNYYPPCPRPELVLGLTSHSDFSGLTILLQLNEVEGLQIRKEGRWISIKPLPDAFIVNVGDILEIMTNGIYRSVEHRAVVNSTKERLSIATFHDSKLESEIGPISSLVTPETPALFKRGRYEDILKENLSRKLDGKSFLDYMRM
Consider B4, for which the “morphine yield improved relative to WT CODM” value in the experiment with codeine was about 24%. Also, the “oripavine yield improved relative to WT CODM” value in the experiment on thebaine was about 27%.

B5: E259G+R260K: codeine 3-O-demethylase with amino acid substitutions E259G and R260K (protein, listed as Papaver somniferum)
chain: METPILIKLGNGLSIPSVQELAKLTLAEIPSRYTCTGESPLNNIGASVTDDETVPVIDLQNLLSPEPVVGKLELDKLHSACKEWGFFQLVNHGVDALLMDNIKSEIKGFFNLPMNEKTKYGQQDGDFEGFGQPYIESEDQRLDWTEVFSMLSLPLHLRKPHLFPELPLPFRETLESYLSKMKKLSTVVFEMLEKSLQLVEIKGMTDLFEDGLQTMRMNYYPPCPRPELVLGLTSHSDFSGLTILLQLNEVEGLQIRKEGKWISIKPLPDAFIVNVGDILEIMTNGIYRSVEHRAVVNSTKERLSIATFHDSKLESEIGPISSLVTPETPALFKRGRYEDILKENLSRKLDGKSFLDYMRM
B5: the “product yield / performance compared to WT CODM strain (in words)” value in the experiment on thebaine is recorded as “improved compared to the WT CODM stain”.

B6: 15K: codeine 3-O-demethylase with amino acid substitution I5K (protein, listed as Papaver somniferum)
chain: METPKLIKLGNGLSIPSVQELAKLTLAEIPSRYTCTGESPLNNIGASVTDDETVPVIDLQNLLSPEPVVGKLELDKLHSACKEWGFFQLVNHGVDALLMDNIKSEIKGFFNLPMNEKTKYGQQDGDFEGFGQPYIESEDQRLDWTEVFSMLSLPLHLRKPHLFPELPLPFRETLESYLSKMKKLSTVVFEMLEKSLQLVEIKGMTDLFEDGLQTMRMNYYPPCPRPELVLGLTSHSDFSGLTILLQLNEVEGLQIRKEERWISIKPLPDAFIVNVGDILEIMTNGIYRSVEHRAVVNSTKERLSIATFHDSKLESEIGPISSLVTPETPALFKRGRYEDILKENLSRKLDGKSFLDYMRM
Consider B6, for which, in the experiment on codeine, the “morphine yield improved relative to WT CODM” value is on record as about 58% and the “speed of biotransformation with codeine as substrate (in words)” value is “faster than the WT CODM control”. Moreover, the yield of morphine with codeine (time course, after one hour) is about 94%. Moreover, in the experiment on thebaine, the “oripavine yield improved relative to WT CODM” value is recorded as about 79%.

B7: E259D: codeine 3-O-demethylase with amino acid substitution E259D (protein, listed as Papaver somniferum)
chain: METPILIKLGNGLSIPSVQELAKLTLAEIPSRYTCTGESPLNNIGASVTDDETVPVIDLQNLLSPEPVVGKLELDKLHSACKEWGFFQLVNHGVDALLMDNIKSEIKGFFNLPMNEKTKYGQQDGDFEGFGQPYIESEDQRLDWTEVFSMLSLPLHLRKPHLFPELPLPFRETLESYLSKMKKLSTVVFEMLEKSLQLVEIKGMTDLFEDGLQTMRMNYYPPCPRPELVLGLTSHSDFSGLTILLQLNEVEGLQIRKEDRWISIKPLPDAFIVNVGDILEIMTNGIYRSVEHRAVVNSTKERLSIATFHDSKLESEIGPISSLVTPETPALFKRGRYEDILKENLSRKLDGKSFLDYMRM
With B7, in the experiment with codeine, the “morphine yield improved relative to WT CODM” value is recorded as about 30%. Besides, in the experiment with thebaine, the “oripavine yield improved relative to WT CODM” value was about 38%.

B8: M360I: codeine 3-O-demethylase with amino acid substitution M360I (protein, listed as Papaver somniferum)
chain: METPILIKLGNGLSIPSVQELAKLTLAEIPSRYTCTGESPLNNIGASVTDDETVPVIDLQNLLSPEPVVGKLELDKLHSACKEWGFFQLVNHGVDALLMDNIKSEIKGFFNLPMNEKTKYGQQDGDFEGFGQPYIESEDQRLDWTEVFSMLSLPLHLRKPHLFPELPLPFRETLESYLSKMKKLSTVVFEMLEKSLQLVEIKGMTDLFEDGLQTMRMNYYPPCPRPELVLGLTSHSDFSGLTILLQLNEVEGLQIRKEERWISIKPLPDAFIVNVGDILEIMTNGIYRSVEHRAVVNSTKERLSIATFHDSKLESEIGPISSLVTPETPALFKRGRYEDILKENLSRKLDGKSFLDYMRI
Turning to B8, in the experiment on codeine, the “morphine yield improved relative to WT CODM” value was about 29% and the “speed of biotransformation with codeine as substrate (in words)” value was “faster than the WT CODM control but not as fast as the other two mutant strains”. Further, the “oripavine yield improved relative to WT CODM” value with thebaine is recorded as about 33%.

B9: T3K: codeine 3-O-demethylase with amino acid substitution T3K (protein, listed as Papaver somniferum)
chain: MEKPILIKLGNGLSIPSVQELAKLTLAEIPSRYTCTGESPLNNIGASVTDDETVPVIDLQNLLSPEPVVGKLELDKLHSACKEWGFFQLVNHGVDALLMDNIKSEIKGFFNLPMNEKTKYGQQDGDFEGFGQPYIESEDQRLDWTEVFSMLSLPLHLRKPHLFPELPLPFRETLESYLSKMKKLSTVVFEMLEKSLQLVEIKGMTDLFEDGLQTMRMNYYPPCPRPELVLGLTSHSDFSGLTILLQLNEVEGLQIRKEERWISIKPLPDAFIVNVGDILEIMTNGIYRSVEHRAVVNSTKERLSIATFHDSKLESEIGPISSLVTPETPALFKRGRYEDILKENLSRKLDGKSFLDYMRM
Regarding B9, in the experiment on thebaine (setting [1]), the “product yield / performance compared to WT CODM strain (in words)” value is “minor improvement in product yield”.

B10: R260T: codeine 3-O-demethylase with amino acid substitution R260T (protein, listed as Papaver somniferum)
chain: METPILIKLGNGLSIPSVQELAKLTLAEIPSRYTCTGESPLNNIGASVTDDETVPVIDLQNLLSPEPVVGKLELDKLHSACKEWGFFQLVNHGVDALLMDNIKSEIKGFFNLPMNEKTKYGQQDGDFEGFGQPYIESEDQRLDWTEVFSMLSLPLHLRKPHLFPELPLPFRETLESYLSKMKKLSTVVFEMLEKSLQLVEIKGMTDLFEDGLQTMRMNYYPPCPRPELVLGLTSHSDFSGLTILLQLNEVEGLQIRKEETWISIKPLPDAFIVNVGDILEIMTNGIYRSVEHRAVVNSTKERLSIATFHDSKLESEIGPISSLVTPETPALFKRGRYEDILKENLSRKLDGKSFLDYMRM
On to B10, for which, in the experiment on codeine (after 30 minutes), the “less morphine generated than WT CODM” value is about 28%. Besides, in the experiment with thebaine (after 4 hours), the “less oripavine generated than WT CODM” value is given as about 29%.

B11: WT CODM: wild type codeine 3-O-demethylase (UniProtKB: D4N502), N-terminally fused to 6H and MBP, expressed in E. coli (protein, UniProt D4N502 1-360, looked up)
Codeine O-demethylase: METPILIKLGNGLSIPSVQELAKLTLAEIPSRYTCTGESPLNNIGASVTDDETVPVIDLQNLLSPEPVVGKLELDKLHSACKEWGFFQLVNHGVDALLMDNIKSEIKGFFNLPMNEKTKYGQQDGDFEGFGQPYIESEDQRLDWTEVFSMLSLPLHLRKPHLFPELPLPFRETLESYLSKMKKLSTVVFEMLEKSLQLVEIKGMTDLFEDGLQTMRMNYYPPCPRPELVLGLTSHSDFSGLTILLQLNEVEGLQIRKEERWISIKPLPDAFIVNVGDILEIMTNGIYRSVEHRAVVNSTKERLSIATFHDSKLESEIGPISSLVTPETPALFKRGRYEDILKENLSRKLDGKSFLDYMRM
modifications: N-terminal His6-MBP fusion
notes: wild type codeine 3-O-demethylase (UniProtKB: D4N502), N-terminally fused to 6H and MBP, expressed in E. coli
For the molecule B11, in the experiment on codeine, the “average codeine to morphine yield” value is listed as 47%. Further, the “average thebaine to oripavine yield” value with thebaine (after 4 hours) was determined as 47%.
